Values joined by “and” are separate entries in the source; they are usually repeats but may differ in a detail not shown here. Equal values may be shown once. Blank lines part the entries; values can stand above or below the binder they belong to.
What was measured:
[1] = target: T1, C-terminally His-tagged full-length p97 (residues 1–806) (murine, UniProt Q01853 1-806); assay: ITC; full-length p97 in the cell at 10–50 μM, FAF1 or FAF1 truncation as titrant at 7.5 to 10 times the cell concentration; 20 mM HEPES, 150 mM KCl, pH 7.4; 30 °C; average of two measurements; settings: both partners purified
T1 construct: p97 (VCP), murine, full length, residues 1–806, in PET22b; Hexamer, with a minor dodecamer, by SV-AUC; also called VCP; valosin-containing protein

[2] = target: the molecule itself; assay: native MS; full-length FAF1 at 10 μM in 200 mM ammonium acetate pH 7.5; Q-ToF modified for high mass detection
[3] = target: T1, C-terminally His-tagged full-length p97 …; assay: MST; 0.06 μM dye-labelled FAF1 kept constant, full-length p97 titrated between 135 and 0.0041 μM; 20 mM HEPES, 150 mM KCl, pH 7.4; 30 °C; average of two experiments, Hill equation fit; settings: both partners purified
[4] = target: the molecule itself; assay: cross-linking; 15 μM FAF1 or truncation in SEC buffer with ethyl glycol bissuccinimidyl succinate (EGS), 15 min at room temperature, stopped with Tris, SDS-PAGE

T1 sequence (Q01853 whole entry, the tested form may be a part): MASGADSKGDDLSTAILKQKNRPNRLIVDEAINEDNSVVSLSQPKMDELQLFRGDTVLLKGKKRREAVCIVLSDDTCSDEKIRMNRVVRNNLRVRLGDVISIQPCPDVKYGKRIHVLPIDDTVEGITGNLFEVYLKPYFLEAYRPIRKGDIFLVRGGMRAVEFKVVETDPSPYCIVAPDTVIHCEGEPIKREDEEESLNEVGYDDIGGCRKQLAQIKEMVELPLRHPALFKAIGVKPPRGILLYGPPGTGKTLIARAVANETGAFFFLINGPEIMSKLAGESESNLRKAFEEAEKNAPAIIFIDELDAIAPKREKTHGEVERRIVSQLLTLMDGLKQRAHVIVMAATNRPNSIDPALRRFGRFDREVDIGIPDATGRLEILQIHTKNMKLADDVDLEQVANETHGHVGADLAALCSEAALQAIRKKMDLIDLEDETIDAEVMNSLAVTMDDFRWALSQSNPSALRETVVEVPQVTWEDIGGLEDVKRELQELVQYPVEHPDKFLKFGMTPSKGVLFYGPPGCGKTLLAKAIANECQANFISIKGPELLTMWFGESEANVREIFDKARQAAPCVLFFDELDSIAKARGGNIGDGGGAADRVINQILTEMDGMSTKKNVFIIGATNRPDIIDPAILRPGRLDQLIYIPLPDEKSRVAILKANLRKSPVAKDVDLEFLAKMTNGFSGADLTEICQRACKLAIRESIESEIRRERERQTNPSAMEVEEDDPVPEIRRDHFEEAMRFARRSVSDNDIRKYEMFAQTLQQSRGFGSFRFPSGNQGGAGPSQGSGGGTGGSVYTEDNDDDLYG

Kd [1]: 3.9 µM | stoichiometry N [1]: 0.98 ± 0.1 FAF1-UBX per p97
B1: FAF1-UBX(550–649) (domain or fragment, murine, UniProt P54731 550-649, looked up)
chain: EAIRLSLEQALPPEPKEENAEPVSKLRIRTPSGEFLERRFLASNKLQIVFDFVASKGFPWDEFKLLSTFPRRDVTQLDPNKSLLEVNLFPQETLFLQAKE
notes: Fas-associated factor 1 (FAF1), residues 550–649 (UBX domain), in pGEx; also called UBX domain of FAF1; source: E. coli Rosetta 2 (autoinduction), purified (GSTrap, GST cleaved with HRV 3C, size-exclusion chromatography)

KD site 1 (two-site model) [1]: 0.8 µM | KD site 2 (two-site model) [1]: 19 µM | Kd [1]: 5.2 µM | stoichiometry N [1]: 0.8 ± 0.03 FAF1 per p97 | Kd [3]: 130 nM
B2: N-terminally His-tagged full-length FAF1 (natural protein, murine, UniProt P54731 1-649, looked up)
chain: MASNMDREMILADFQACTGIENIDEAITLLEQNNWDLVAAINGVIPQENGILQSDFGGETMPGPTFDPASHPAPASTPSSSAFRPVMPSRQIVERQPRMLDFRVEYRDRNVDVVLEDSCTVGEIKQILENELQIPVPKMLLKGWKTGDVEDSTVLKSLHLPKNNSLYVLTPDLPPPSSSSHAGALQESLNQNFMLIITHREVQREYNLNFSGSSTVQEVKRNVYDLTSIPVRHQLWEGWPASATDDSMCLAESGLSYPCHRLTVGRRTSPVQTREQSEEQSTDVHMVSDSDGDDFEDASEFGVDDGEVFGMASSTLRKSPMMPENAENEGDALLQFTAEFSSRYGDCHPVFFIGSLEAAFQEAFYVKARDRKLLAIYLHHDESVLTNVFCSQMLCAESIVSYLSQNFITWAWDLTKDTNRARFLTMCNRHFGSVIAQTIRTQKTDQFPLFLIIMGKRSSNEVLNVIQGNTTVDELMMRLMAAMEIFSAQQQEDIKDEDEREARENVKREQDEAYRLSLEADRAKREAHEREMAEQFRLEQIRKEQEEEREAIRLSLEQALPPEPKEENAEPVSKLRIRTPSGEFLERRFLASNKLQIVFDFVASKGFPWDEFKLLSTFPRRDVTQLDPNKSLLEVNLFPQETLFLQAKE
modifications: NanoTemper495-N-hydroxysuccinimide blue/red dye label (in the MST only)
notes: Fas-associated factor 1 (FAF1), full length, in pProEx; the truncations end at residue 649; N-terminally His-tagged FAF1 was used for all experiments except nanogold labelling; also called Fas-associated factor 1; His-tagged FAF1; source: held on the nickel column from cleared lysate in the pull-down; not shown: His tag, N-terminal, kept
stoichiometry N [2]: 2 and 3

KD site 1 (two-site model) [1]: 0.7 µM | KD site 2 (two-site model) [1]: 12 µM | Kd [1]: 4.9 µM | stoichiometry N [1]: 0.89 ± 0.3 FAF1-CC-UBX per p97
B3: FAF1-CC-UBX(491–649) (domain or fragment, murine, UniProt P54731 491-649, looked up)
chain: QEDIKDEDEREARENVKREQDEAYRLSLEADRAKREAHEREMAEQFRLEQIRKEQEEEREAIRLSLEQALPPEPKEENAEPVSKLRIRTPSGEFLERRFLASNKLQIVFDFVASKGFPWDEFKLLSTFPRRDVTQLDPNKSLLEVNLFPQETLFLQAKE
notes: Fas-associated factor 1 (FAF1), residues 491–649 (coiled-coil and UBX domains), in pGEx; also called coiled-coil and UBX domains of FAF1; source: E. coli Rosetta 2 (autoinduction), purified (GSTrap, GST cleaved with HRV 3C, size-exclusion chromatography)
stoichiometry N [4]: 3

Source: paper PMC4002113, “The p97-FAF1 Protein Complex Reveals a Common Mode of p97 Adaptor Binding*” (The Journal of Biological Chemistry, 2014)
